# According to US20040038297:
# Target: T1, complement factor C4, P0C0L4
# T1 chain: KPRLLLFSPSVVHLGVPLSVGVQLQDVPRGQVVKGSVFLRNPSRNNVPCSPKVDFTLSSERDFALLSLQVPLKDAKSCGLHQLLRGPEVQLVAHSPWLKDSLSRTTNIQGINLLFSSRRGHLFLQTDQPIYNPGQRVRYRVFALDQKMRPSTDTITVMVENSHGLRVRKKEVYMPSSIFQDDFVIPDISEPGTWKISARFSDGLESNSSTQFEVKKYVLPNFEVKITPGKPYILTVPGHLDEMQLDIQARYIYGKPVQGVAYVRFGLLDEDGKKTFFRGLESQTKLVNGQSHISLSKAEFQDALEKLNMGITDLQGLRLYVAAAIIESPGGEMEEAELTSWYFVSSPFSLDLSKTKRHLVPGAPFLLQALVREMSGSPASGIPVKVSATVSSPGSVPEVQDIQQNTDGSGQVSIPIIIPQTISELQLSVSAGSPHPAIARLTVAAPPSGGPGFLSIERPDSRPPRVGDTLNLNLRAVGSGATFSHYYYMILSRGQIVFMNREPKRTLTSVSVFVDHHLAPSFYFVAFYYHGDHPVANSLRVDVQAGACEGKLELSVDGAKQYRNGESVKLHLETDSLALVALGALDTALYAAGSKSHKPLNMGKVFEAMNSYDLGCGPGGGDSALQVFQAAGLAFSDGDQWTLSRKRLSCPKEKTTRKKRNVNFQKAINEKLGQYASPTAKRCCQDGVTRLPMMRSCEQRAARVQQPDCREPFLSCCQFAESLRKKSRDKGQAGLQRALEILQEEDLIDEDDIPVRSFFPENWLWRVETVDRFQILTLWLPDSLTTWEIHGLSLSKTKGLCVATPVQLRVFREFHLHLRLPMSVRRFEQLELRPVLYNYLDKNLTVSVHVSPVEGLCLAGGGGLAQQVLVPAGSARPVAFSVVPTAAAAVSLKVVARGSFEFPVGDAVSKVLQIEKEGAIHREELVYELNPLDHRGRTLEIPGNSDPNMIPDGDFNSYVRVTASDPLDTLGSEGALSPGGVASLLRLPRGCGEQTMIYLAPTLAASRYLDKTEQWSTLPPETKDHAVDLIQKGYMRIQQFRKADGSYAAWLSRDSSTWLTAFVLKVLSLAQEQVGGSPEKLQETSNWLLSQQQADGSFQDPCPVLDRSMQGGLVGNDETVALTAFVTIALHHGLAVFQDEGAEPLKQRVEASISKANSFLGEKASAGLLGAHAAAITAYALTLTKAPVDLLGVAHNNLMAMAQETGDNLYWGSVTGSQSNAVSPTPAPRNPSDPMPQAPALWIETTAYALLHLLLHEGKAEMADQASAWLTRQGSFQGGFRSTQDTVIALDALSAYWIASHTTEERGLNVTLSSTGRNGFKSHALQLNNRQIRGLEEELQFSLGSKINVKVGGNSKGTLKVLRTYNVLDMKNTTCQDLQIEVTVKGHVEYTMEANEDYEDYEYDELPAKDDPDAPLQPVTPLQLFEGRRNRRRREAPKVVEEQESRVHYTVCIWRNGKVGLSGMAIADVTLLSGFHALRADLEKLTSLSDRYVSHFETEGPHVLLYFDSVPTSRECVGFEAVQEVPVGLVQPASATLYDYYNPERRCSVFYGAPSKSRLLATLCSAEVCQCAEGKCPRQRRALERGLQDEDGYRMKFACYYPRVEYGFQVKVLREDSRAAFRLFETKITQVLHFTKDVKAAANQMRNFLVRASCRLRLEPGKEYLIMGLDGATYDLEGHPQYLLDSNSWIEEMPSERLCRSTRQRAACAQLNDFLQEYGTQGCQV
row,Protein,C4 deposition on a Western blot incubated with human serum (C4 converting activity)
1,MASP-1 (MBP-associated serine protease) (protein) HTVELNNMFGQIQSPGYPDSYPSDSEVTWNITVPDGFRIKLYFMHFNLESSYLCEYDYVKVETEDQVLATFCGRETTDTEQTPGQEVVLSPGSFMSITFRSDFSNEERFTGFDAHYMAVDVDECKEREDEELSCDHYCHNYIGGYYCSCRFGYILHTDNRTCRVECSDNLFTQRTGVITSPDFPNPYPKSSECLYTIELEEGFMVNLQFEDIFDIEDHPEVPCPYDYIKIKVGPKVLGPFCGEKAPEPISTQSHSVLILFHSDNSGENRGWRLSYRAAGNECPELQPPVHGKIEPSQAKYFFKDQVLVSCDTGYKVLKDNVEMDTFQIECLKDGTWSNKIPTCKIVDCRAPGELEHGLITFSTRNNLTTYKSEIKYSCQEPYYKMLNNNTGIYTCSAQGVWMNKVLGRSLPTCLPVCGLPKFSRKLMARIFNGRPAQKGTTPWIAMLSHLNGQPFCGGSLLGSSWIVTAAHCLHQSLDPEDPTLRDSDLLSPSDFKIILGKHWRLRSDENEQHLGVKHTTLHPQYDPNTFENDVALVELLESPVLNAFVMPICLPEGPQQEGAMVIVSGWGKQFLQRFPETLMEIEIPIVDHSTCQKAYAPLKKKVTRDMICAGEKEGGKDACAGDSGGPMVTLNRERGQWYLVGTVSWGDDCGKKDRYGVYSYIHHNKDWIQRVTGVRN,no C4 deposition was observed at positions corresponding to MASP-1
2,C1s (protein) EPTMYGEILSPNYPQAYPSEVEKSWDIEVPEGYGIHLYFTHLDIELSENCAYDSVQIISGDTEEGRLCGQRSSNNPHSPIVEEFQVPYNKLQVIFKSDFSNEERFTGFAAYYVATDINECTDFVDVPCSHFCNNFIGGYFCSCPPEYFLHDDMKNCGVNCSGDVFTALIGEIASPNYPKPYPENSRCEYQIRLEKGFQVVVTLRREDFDVEAADSAGNCLDSLVFVAGDRQFGPYCGHGFPGPLNIETKSNALDIIFQTDLTGQKKGWKLRYHGDPMPCPKEDTPNSVWEPAKAKYVFRDVVQITCLDGFEVVEGRVGATSFYSTCQSNGKWSNSKLKCQPVDCGIPESIENGKVEDPESTLFGSVIRYTCEEPYYYMENGGGGEYHCAGNGSWVNEVLGPELPKCVPVCGVPREPFEEKQRIIGGSDADIKNFPWQVFFDNPWAGGALINEYWVLTAAHVVEGNREPTMYVGSTSVQTSRLAKSKMLTPEHVFIHPGWKLLEVPEGRTNFDNDIALVRLKDPVKMGPTVSPICLPGTSSDYNLMDGDLGLISGWGRTEKRDRAVRLKAARLPVAPLRKCKEVKVEKPTADAEAYVFTPNMICAGGEKGMDSCKGDSGGAFAVQDPNDKTKFYAAGLVSWGPQCGTYGLYTRVKNYVDWIMKTMQENSTPRED,"C4 deposition, which could be inhibited by enzyme inhibitors, was observed at a position corresponding to C1r and C1s, which are not separated by the technique employed"
3,mannan-binding lectin associated serine protease-2 (MASP-2) (protein) TPLGPKWPEPVFGRLASPGFPGEYANDQERRWTLTAPPGYRLRLYFTHFDLELSHLCEYDFVKLSSGAKVLATLCGQESTDTERAPGKDTFYSLGSSLDITFRSDYSNEKPFTGFEAFYAAEDIDECQVAPGEAPTCDHHCHNHLGGFYCSCRAGYVLHRNKRTCSALCSGQVFTQRSGELSSPEYPRPYPKLSSCTYSISLEEGFSVILDFVESFDVETHPETLCPYDFLKIQTDREEHGPFCGKTLPHRIETKSNTVTITFVTDESGDHTGWKIHYTSTAHACPYPMAPPNGHVSPVQAKYILKDSFSIFCETGYELLQGHLPLKSFTAVCQKDGSWDRPMPACSIVDCGPPDDLPSGRVEYITGPGVTTYKAVIQYSCEETFYTMKVNDGKYVCEADGFWTSSKGEKSLPVCEPVCGLSARTTGGRIYGGQKAKPGDFPWQVLILGGTTAAGALLYDNWVLTAAHAVYEQKHDASALDIRMGTLKRLSPHYTQAWSEAVFIHEGYTHDAGFDNDIALIKLNNKVVINSNITPICLPRKEAESFMRTDDIGTASGWGLTQRGFLARNLMYVDIPIVDHQKCTAAYEKPPYPRGSVTANMLCAGLESGGKDSCRGDSGGALVFLDSETERWFVGGIVSWGSMNCGEAGQYGVYTKVINYIPWIENIISDF,C4 was deposited at a position corresponding to the MASP-2 band
